Test results: patent US7858577B2, “Use of the long pentraxin PTX3 for the treatment of diseases caused by an altered activation of the growth factor FGF-2” (Sigma-Tau Industrie Farmaceutiche Riunite S.p.A., priority 2000, dated 2010)
Values belong to the molecule of their own block, whether it stands above or below them.

Legend:
MAE3F2T cells = test: Effect on FGF-2 dependent autocrine proliferation of MAE3F2T cells; type: cell-based, murine; conditions: 72 h in 0.4% FCS; PTX3 70 nM, suramin 50 μg/ml, anti FGF-2 antibodies; cell counting
Experimental: In this experiment we have investigated the effect of PTX3 on the proliferation of the murine aortic endothelial cell line MAE3F2T stably transfected with an expression vector coding for FGF-2 (Gualandris et al. 1996, Cell Growth Diff. 7:147-60). These cells can proliferate in response to a autocrine loop of stimulation induced by endogenous FGF-2 (Gualandris et al. 1996, Cell Growth Diff. 7:14760). MAE3F2T cells were seeded at 10,000/cm^2 in 48-well plates in Dulbecco medium (DMEM) added with 10% FCS. After 24 h at 37° C., adherent cells were washed twice with DMEM without FCS and incubated for 72 at 37° C. in DMEM containing 0.4% FCS in the presence or not of PTX3 (70 nM), anti FGF-2 specific antibodies or suramin (50 μg/ml). Suramin is known for its capacity to sequestrate extracellular FGF-2 and inhibits its biological activities (Rusnati et al., 1996, Mol. Biol. Cell. 7:369-381). At the end of incubation cells were trypsinized and counted in a Burker chamber.

FGF-2 [1] = biological target: T1, FGF-2 (Homo sapiens, UniProt P09038); test: 125I-FGF-2 binding to plastic immobilised proteins; conditions: wells coated with 200 nM PTX3 or CRP or 2 μg/ml control proteins, 30 ng 125I-FGF-2, 2 h room temperature
T1 construct: made in house
Experimental: (§1) 96 wells plates were coated at 4° C. with 100 μl of NaHCO3 pH 9.6 containing PTX3 or C reactive protein (200 nM) or alternatively 2 μg/ml of the following proteins used as negative control: bovine serum albumin, fibronectin, gelatine or laminin. After incubation, wells were washed 3 times with PBS and blocked 2 h at room temperature with 200 μl of 1 mg/ml of BSA in PBS. At the end of incubation wells were washed 3 times with PBS and subsequently incubated with 30 ng of ^125I-FGF-2 for 2 h at room temperature. Wells were subsequently washed 3 times with PBS and bound ^125I-FGF-2 was recovered by washing each well twice with 200 μl of 2% SDS in water. Levels of ^125I-FGF-2 were measured in a gamma counter.

[2] = test system: low affinity receptors (HSPGs) on GM7373 cells; test: Effect of PTX3 on 125I-FGF-2 binding to low affinity receptors on endothelial cells; type: cell-based, bovine; conditions: 125I-FGF-2 10 ng/ml, 2 h at 4° C., increasing concentrations of PTX3
Experimental: (§2) Transformed foetal bovine aortic endothelial cells GM7373 were seeded at 80,000 cells/cm^2 in 24-well dishes in Eagle's minimal essential medium (Eagle's MEM) containing 10% FCS. After 24 h at 37° C. adherent cells were washed twice with Eagle's MEM without FCS and subsequently incubated for 2 h at 4° C. with ^125I-FGF-2 (10 ng/ml) in Eagle's MEM containing 0.15% gelatine and 20 mM HEPES pH 7.5 in the absence or in the presence of increasing concentrations of PTX3. At the end of incubation the amount of ^125I-FGF-2 bound to low (HSPGs) and high affinity receptors (FGFR) was evaluated as described by Moscatelli, 1987 J. Cell. Physiol. 131:123-30. Briefly cells were rinsed twice with 2 M NaCl in 20 mM HEPES buffer (pH 7.5) to remove ^125I-FGF-2 bound to low-affinity binding sites and twice with 2 M NaCl in 20 mM sodium acetate (pH 4.0) to remove ^125I-FGF-2 bound to high-affinity binding sites. Non-specific binding was measured in the presence of a 100-fold molar excess of unlabeled FGF-2 and subtracted from all the values.

[3] = test system: neovascularization induced in vivo by FGF-2; test: Chick embryo chorioallantoic membrane (CAM) assay, neovascularization induced by FGF-2; conditions: gelatin sponge, FGF-2 500 ng/sponge, PTX3 5 ug/sponge, scored after 4 days
Experimental: The antiangiogenic potential of PTX3 was evaluated in vivo in the chick embryo chorioallantoic membrane (CAM) assay. Briefly, a window was opened in the egg shell of 3 day-old fertilized chicken eggs. At day 8, gelatin sponges were implanted on the CAMs and adsorbed with 10 ul of PBS alone or containing FGF-2 (at 500 ng/sponge) in the absence or in the presence of PTX3 (5 ug/sponge) (5-6 embryos per group).

FGF-2 [4] = biological target: T1, FGF-2; test: Dissociation constant (Kd) of FGF-2/PTX3 interaction, Scatchard plot; type: binding; conditions: increasing doses of 125I-FGF-2 on plastic immobilised PTX3, Scatchard plot
Experimental: With this experiment the dissociation constant (Kd) FGF-2/PTX3 interaction has been determined. For this purpose increasing doses of ^125I-FGF-2 were incubated with plastic immobilised PTX3 and binding results were analysed by Scatchard plot. […] This affinity is similar to the affinity previously calculated for the interaction of PTX3 with its physiological ligand C1q.

[5] = biological target: T2, interaction between 125I-FGF-2 and plastic immobilised PTX3 (Homo sapiens, UniProt P09038+P26022); test: 125I-FGF-2 binding to plastic immobilised PTX3 in the presence of an excess of competitor; conditions: excess of competitor: FGF-2 or Cytocrome C 100 nM, soluble PTX3 300 nM
T2 construct: made in house
Experimental: as §1
In a second set of experiments the binding of ^125I-FGF-2 to plastic immobilised PTX3 has been tested in the presence of an excess of both native or heat denatured cold FGF-2 (100 nM), in the presence of similar Cytocrome C concentrations or in the presence of an excess of soluble PTX3 (300 nM).

GM 7373 cells = test: Effect of PTX3 on proliferation induced by other mitogens (FCS, DAG, TPA, EGF, VEGF); type: cell-based, bovine; conditions: 10% FCS, 5 μg/ml DAG, 10 ng/ml TPA, 30 ng/ml EGF or 30 ng/ml VEGF
Experimental: GM 7373 cells were seeded at 75,000 cells/cm^2 in 48-well plates in Eagle MEM containing 10% FCS. After 24 h at 37° C. adherent cells were washed twice with Eagle's MEM without FCS and subsequently incubated for 24 h at 37° C. in Eagle's MEM containing 0.4% FCS in the absence or in the presence of FGF-2 (10 ng/ml) and increasing concentrations of PTX3. At the end of incubation cells were trypsinized and counted. In a different set of experiments GM 7373 cells were treated as described above in the presence of different mitogenic stimuli: 10% FCS; 5 μg/ml dyacyl-glycerol (DAG); 10 ng/ml phorbol ester (TPA) 30 ng/ml epidermal growth factor (EGF) or 30 ng/ml vascular endothelial growth factor (VEGF). Results reported in FIG. 7 shown that PTX3 inhibits the mitogenic activity exerted on endothelial cells by FGF-2 in a dose-dependent manner with an ID50 equal to 30 nM. This value is similar to the Kd calculated for the interaction FGF-2-PTX3.

FGF2MAE3F2T cells [6] = test: Invasive behaviour of PTX3 over-expressing FGF2MAE3F2T clones on three-dimensional fibrin gels; type: cell-based, murine; conditions: PTX3 over-expressing clones (cDNA transfection) vs parental cells, after 2 days, image analysis
Source text: (§3) Murine endothelial cells overexpressing FGF-2, named FGF2MAE3F2T (Gualandris et al. 1996, Cell Growth Diff. 7:147-60) were transfected with human PTX3 full length cDNA subcloned in the commercial expression vector pLXSH (Clontech).
(§4) In vitro studies on the transfected cell lines obtained were, performed to study the effect of PTX3 over-expression on FGF-2-dependent proliferation of FGF2MAE3F2T cells and their invasive behaviour on three-dimensional fibrin gels.
To evaluate the invasive behaviour of FGF2MAE3F2T clones over-expressing PTX3 on three-dimensional fibrin gels, cell aggregates were prepared on agarose-coated plates exactly as described (Gualandris et al. 1996, Cell Growth Diff. 7:147-60). These aggregates were seeded onto fibrin-coated 48 well-plates. Immediately after seeding, 250 µl of calcium-free medium containing fibrinogen (2.5 mg/ml) and thrombin (250 mU/ml) were added to each well and allowed to gel for 5 min at 37° C. Then, […] of culture medium were added on the top of the gel. In all the, experiments, the fibrinolytic inhibitor trasylol was added to the gel and to the culture medium at 200 KIU/ml to prevent the dissolution of the substrate. Formation of radially growing cell sprouts was evaluated after 2 days by computerized image analysis.

FGF2MAE3F2T cells [7] = test: Proliferation of FGF2MAE3F2T clones over-expressing PTX3; type: cell-based, murine; conditions: clones transfected with human PTX3 full length cDNA (pLXSH) vs parental cells, 0.4% FCS
Experimental: as §3, §4
After 24 h at 37° C., adherent cells were washed twice with DMEM without FCS and incubated for different period of time at 37° C. in DMEM containing 0.4% FCS. At the end of incubations cells were trypsinized and counted in a Burker chamber.

[8] = test system: high affinity receptors (FGFR) on GM7373 cells; test: Effect of PTX3 on 125I-FGF-2 binding to high affinity receptors on endothelial cells; type: cell-based, bovine; conditions: 125I-FGF-2 10 ng/ml, 2 h at 4° C., increasing concentrations of PTX3
Experimental: as §2

FGF-2 [9] = biological target: T1, FGF-2; test: Capacity of PTX3 to bind FGF in solution (Superose 12 size exclusion chromatography, dot-blot); type: binding; conditions: FGF-2 pre-incubated with PTX3 10 min at 4° C., Superose 12 column
Experimental: This experiment has been performed in order to evaluate PTX3 binding to FGF-2. PTX3 has been produced as described by Bottazzi et al., 1997, J. Biol. Chem. 272:32817-32823. Human recombinant FGF-2 has been produced as described by Isacchi A. et al., Proc. Natl. Acad. Sci. U.S.A. (1991), 88:2628-32. When necessary, FGF-2 has been labelled with ^125I following the method described by Isacchi et al. (see below).
100 μl of PBS containing 1 μg of FGF-2, (or alternatively 1 μg of PTX3) were chromatographed on a size exclusion fast protein liquid chromatography Superose 12 column (Pharmacia): this column is able to separate proteins depending on their molecular weight. The column was eluted with PBS at a flow rate equal to 1 ml/minute and 1 ml fractions were collected and analyzed by dot, blot with specific antibodies for the two proteins. In order to evaluate PTX3 binding to FGF-2 the two proteins ([…] and 1 μg, respectively), were mixed in 100 μl PBS and incubated at 4° C. for 10 min. before loading onto the column. Fractions were collected and analysed by dot-blot with anti FGF-2 specific antibodies. […] In the same conditions PTX3 (450.000 D) is eluted with the void volume of the column (7 ml.) When FGF-2 pre-incubated with PTX3 for.

FGF-2 [10] = biological target: T1, FGF-2; test: Capacity of biotinylated PTX3 to bind plastic immobilised FGF-2; type: binding; conditions: ELISA, streptavidin HRP, 405 nm
Experimental: 100 μl of NaHCO3 pH 9.6 containing 500 ng of FGF-2 or of the complement component C1q were incubated 18 h at 4° C. in 96 wells plastic plates. At the end of incubation wells were washed 3 times with PBS and subsequently incubated 2 h at room temperature with 200 μl of PBS containing 1 mg/ml of Bovine Serum Albumin (BSA). At the end of incubation wells were washed again 3 times with PBS and incubated with 30 ng/ml of ^125I-FGF-2 in presence of increasing amounts of biotinylated PTX3 in 100 μl of PBS (2 h at room temperature). Alternatively wells were adsorbed with increasing doses of FGF-2 or C1q and incubated with 100 ng/ml of biotinylated PTX3 in 100 μl of PBS. After this incubation wells were washed 3 times with PBS and incubated 1 h at room temperature with 100 μl of streptavidin HRP conjugate ( 1/2000). Reaction was developed by adding the chromogen microwell peroxidase substrate system ABTS (Kirkegaard & Perry Laboratories). Plates were read in an automatic ELISA reader at 405 nm.

T1 sequence (P09038 134-288): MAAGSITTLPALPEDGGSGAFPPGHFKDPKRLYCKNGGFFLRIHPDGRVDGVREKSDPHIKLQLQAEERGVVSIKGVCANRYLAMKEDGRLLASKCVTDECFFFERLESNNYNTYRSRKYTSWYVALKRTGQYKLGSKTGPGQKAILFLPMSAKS
T2 sequence (P09038 134-288): as above
T2 sequence (P26022 18-381): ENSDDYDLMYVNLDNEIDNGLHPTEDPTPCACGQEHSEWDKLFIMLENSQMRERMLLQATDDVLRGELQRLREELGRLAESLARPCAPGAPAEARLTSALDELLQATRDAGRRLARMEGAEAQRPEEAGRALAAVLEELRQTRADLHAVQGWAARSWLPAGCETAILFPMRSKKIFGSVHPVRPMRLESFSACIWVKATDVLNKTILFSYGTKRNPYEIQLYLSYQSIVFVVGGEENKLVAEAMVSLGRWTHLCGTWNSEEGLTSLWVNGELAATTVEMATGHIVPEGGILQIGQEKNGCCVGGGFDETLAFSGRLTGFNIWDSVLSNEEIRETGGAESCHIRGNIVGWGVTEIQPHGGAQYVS

Molecule: Cc1ccc(C(=O)Nc2ccc(S(=O)(=O)O)c3cc(S(=O)(=O)O)cc(S(=O)(=O)O)c23)cc1NC(=O)c1cccc(NC(=O)Nc2cccc(C(=O)Nc3cc(C(=O)Nc4ccc(S(=O)(=O)O)c5cc(S(=O)(=O)O)cc(S(=O)(=O)O)c45)ccc3C)c2)c1 [suramin, reference compound]
inhibition of FGF-2 dependent proliferation of MAE3F2T cells (MAE3F2T cells): in a manner similar to that exerted by anti FGF-2 antibodies and suramin

Molecule: CRP: short pentraxin homologous to PTX3, used as comparison protein
binding of 125I-FGF-2 to plastic immobilised protein (FGF-2 [1]): reacts poorly
binding of 125I-FGF-2 to plastic immobilised protein (FGF-2 [1]; listed as C-reactive protein): does not bind FGF-2

Molecule: biotinylated PTX3: PTX3 labelled with biotin for the ELISA binding test
binding of biotinylated PTX3 to plastic immobilised FGF-2 (FGF-2 [10]): FGF-2 immobilised on plastic wells is able to bind biotinylated PTX3

Further lines, with some results ahead:

Kd (FGF-2 [4]): 8 to 16 nM
binding of 125I-FGF-2 to plastic immobilised protein (FGF-2 [1]): FGF-2 binds plastic immobilised PTX3
inhibition of the interaction between 125I-FGF-2 and plastic immobilised PTX3 [5]: inhibited the interaction
Molecule: PTX3: long pentraxin PTX3; preferred is human PTX3, sequence described in WO99/32516; produced as by Bottazzi et al. 1997
inhibition of FGF-2 binding to low-affinity receptors on endothelial cells [2]: able to inhibit in a dose-dependent manner
effect on neovascularization induced in vivo by FGF-2 (angiogenic response score 0-4+) [3]: able to block the neovascularization
inhibitory activity when other mitogens are used to induce cellular proliferation (GM 7373 cells): not detectable
invasive capacity on fibrin gels (radially growing cell sprouts) (FGF2MAE3F2T cells [6]): significantly lower
effect of PTX3 over-expression on FGF2MAE3F2T cells proliferation (FGF2MAE3F2T cells [7]): inhibits FGF2MAE3F2T cells proliferation
inhibition of FGF-2 binding to high-affinity receptors on endothelial cells [8]: able to inhibit in a dose-dependent manner
binding of PTX3 to FGF-2 in solution (change of FGF-2 chromatographic behaviour) (FGF-2 [9]): FGF-2 was eluted from the column with a retention volume equal to PTX3 alone
inhibition of FGF-2 dependent proliferation of MAE3F2T cells (MAE3F2T cells): inhibiting their FGF-2 dependent proliferation

inhibition of the interaction between 125I-FGF-2 and plastic immobilised PTX3 [5]: inhibited the interaction
Molecule: cold FGF-2: human recombinant growth factor FGF-2, unlabelled, used as competitor

inhibition of the interaction between 125I-FGF-2 and plastic immobilised PTX3 [5]: not able to bind PTX3
Molecule: heat-inactivated FGF-2: heat denatured unlabelled FGF-2 used as competitor
